Experimental data from article PMC6997106, “The Trp triad within the V-domain of the receptor for advanced glycation end products modulates folding, stability and ligand binding” (Bioscience Reports, 2020).
Where a chain is given by its changes, count along the chain named. Names may count otherwise.

B1: RAGE-derived peptide W72 (RAGE residues 65-79) (peptide)
peptide: Ac-SPQGGGPWDSVARVL-NH2
notes: RAGE, human, residues 65-79; also called W72 peptide; source: synthetic peptide
B2: RAGE V-domain (residues 23-132), wild type (domain or fragment, human, UniProt Q15109 23-132, looked up)
chain: AQNITARIGEPLVLKCKGAPKKPPQRLEWKLNTGRTEAWKVLSPQGGGPWDSVARVLPNGSLFLPAVGIQDEGIFRCQAMNRNGKETKSNYRVRVYQIPGKPEIVDSASE
notes: receptor for advanced glycation end products (RAGE), human, V-domain, residues 23-132 of uniprot Q15109; Cloned into pET15b by NcoI and XhoI; also called WT; wild-type V-domain; source: E. coli Shuffle T7 Express, purified (HisTrap HP, HiTrap SP FF cation exchange)
B3: RAGE V-domain (residues 23-132) W61A (domain or fragment, human, UniProt Q15109 23-132, looked up)
chain: B2 chain with W39A
notes: RAGE, human, V-domain, residues 23-132 of uniprot Q15109; Same construct as m1 with the mutation; source: E. coli Shuffle T7 Express, purified (HisTrap HP, HiTrap SP FF cation exchange)
B4: FITC-labeled recombinant human S100B (natural protein)
chain: MSELEKAMVALIDVFHQYSGREGDKHKLKKSELKELINNELSHFLEEIKEQEVVDKVMETLDNDGDGECDFQEFMAFVAMVTTACHEFFEHE
modifications: fluorescein (FITC labeling kit, 5-fold excess of FITC over protein; sites not stated)
notes: S100B, human, uniprot P04271; the titrations were fitted with a 1:1 RAGE:S100B model; also called S100B-FITC; FITC-labeled S100B; source: labeled with an FITC labeling kit (Pierce/Thermo Fisher 53027)
B5: RAGE V-domain (residues 23-132) W72A (domain or fragment, human, UniProt Q15109 23-132, looked up)
chain: B2 chain with W50A
notes: as for B3
B6: Recombinant human S100B (natural protein)
chain: B4 chain
notes: S100B, human, uniprot P04271; Homodimer in the crystal structure 5D7F; also called calcium-loaded S100B

Assays:
Recombinant human S100B [1] = biological target: B6; assay: crystal structure; 2 mM S100B with 3 mM peptide W72, CaCl2 present; sitting drop, 0.1 M Na cacodylate pH 6.8, 22% PEG 3350, 5 mM CaCl2, 20°C; settings: both partners purified
Recombinant human S100B [2] = biological target: B6; assay: tryptophan fluorescence lifetime; 1 µM V-domain, with S100B in the presence of 2 mM calcium; excitation 280 nm; amplitude weighted average lifetime τm; settings: both partners purified
[3] = biological target: T1, RAGE V-domain (residues 23-132) W51A/W72A (human, UniProt Q15109 23-132, W51A | W72A); assay: fluorescence polarisation; 1 µM S100B-FITC in 50 mM Tris, pH 7.0, 2 mM CaCl2 titrated with V-domain stock solutions; 1:1 RAGE:S100B model; apparent; settings: both partners purified
T1 construct: RAGE, human, V-domain, residues 23-132 of uniprot Q15109; Same construct as m1 with the mutations; source: E. coli Shuffle T7 Express, purified (HisTrap HP, HiTrap SP FF cation exchange)

[4] = biological target: T2, RAGE V-domain (residues 23-132) W51A (human, UniProt Q15109 23-132, W51A); assay: as above; settings: both partners purified
T2 construct: RAGE, human, V-domain, residues 23-132 of uniprot Q15109; Same construct as m1 with the mutation; source: E. coli Shuffle T7 Express, purified (HisTrap HP, HiTrap SP FF cation exchange)

[5] = biological target: B2; assay: as above; settings: both partners purified
[6] = biological target: B3; assay: as above; settings: both partners purified
[7] = biological target: T3, RAGE V-domain (residues 23-132) W61A/W72A (human, UniProt Q15109 23-132, W61A | W72A); assay: as above; settings: both partners purified
T3 construct: RAGE, human, V-domain, residues 23-132 of uniprot Q15109; Same construct as m1 with the mutations; source: E. coli Shuffle T7 Express, purified (HisTrap HP, HiTrap SP FF cation exchange)

[8] = biological target: B5; assay: as above; settings: both partners purified
[9] = biological target: T4, RAGE V-domain (residues 23-132) W51A/W61A (human, UniProt Q15109 23-132, W51A | W61A); assay: as above; settings: both partners purified
T4 construct: RAGE, human, V-domain, residues 23-132 of uniprot Q15109; Same construct as m1 with the mutations; also called W51/W61; source: E. coli Shuffle T7 Express, purified (HisTrap HP, HiTrap SP FF cation exchange)

[10] = biological target: T1, RAGE V-domain (residues 23-132) …; assay: steady-state tryptophan fluorescence; emission spectra of V-domains alone and as V-domain:S100B complexes; excitation at 295 nm; settings: both partners purified
[11] = biological target: T2, RAGE V-domain (residues 23-132) W51A; assay: as above; settings: both partners purified
[12] = biological target: B2; assay: as above; settings: both partners purified
[13] = biological target: B3; assay: as above; settings: both partners purified
[14] = biological target: T3, RAGE V-domain (residues 23-132) …; assay: as above; settings: both partners purified
[15] = biological target: B5; assay: as above; settings: both partners purified
[16] = biological target: T4, RAGE V-domain (residues 23-132) …; assay: as above; settings: both partners purified
[17] = biological target: the molecule itself; assay: crystal structure; 2 mM S100B with 3 mM peptide W72, CaCl2 present; sitting drop, 0.1 M Na cacodylate pH 6.8, 22% PEG 3350, 5 mM CaCl2, 20°C

Binder: B1
binding result (Recombinant human S100B [1]): binds

Binder: B2
Δτm (change of the average Trp fluorescence lifetime with S100B) (Recombinant human S100B [2]): -0.83 ns

Binder: B3
Δτm (change of the average Trp fluorescence lifetime with S100B) (Recombinant human S100B [2]): -0.8 ns

Binder: B4
Kd [3]: 460 ± 320 nM | Kd [4]: 480 ± 60 nM | Kd [5]: 2700 ± 300 nM | Kd [6]: 870 ± 40 nM | Kd [7]: 370 ± 90 nM | Kd [8]: 1120 ± 1010 nM | Kd [9]: 660 ± 120 nM

Binder: B5
Δτm (change of the average Trp fluorescence lifetime with S100B) (Recombinant human S100B [2]): -1 ns

Binder: B6
binding result [10]: binds | binding result [11]: binds | binding result [12]: binds | binding result [13]: binds | binding result [14]: binds | binding result [15]: binds | binding result [16]: binds | binding result [17]: binds
